# Assay results as given in the nanobody polyreactivity screen of Harvey et al. (2022).
# Assay: yeast display, Sf9 membrane polyspecificity reagent, FACS + sequencing; frameworks hold sequencing errors
# Summary of the method: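 A nanobody's polyreactivity label depends on the gate it was sorted from. Yeast display cells were stained with 10% biotinylated, detergent-solubilized Sf9 membrane reagent for 1 hour at 4 °C, enriched on streptavidin microbeads and sorted by FACS. The low and high (top ~1%) gates were set on anti-HA fluorescence for expression and streptavidin fluorescence for reagent binding.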
row,Sequence,polyreactivity (PSR sort gate)
1,HVKLVESGGGLVQAGGSLRLSCAASGSIFEPYVMGWYRQAPGKERELVAAIRQTRGSTYYADSVKGRFTISRDNAKNTVYLQMNSLKPEDTAVYYCNAEQNPSGLYDYRGVEGEMGYWGQGTQVTVSS,low polyreactivity
2,QVQLVESGGGLVQAGGSLRLSCAASGSILQTNVMGWYIQAPGKEREFVAAIRWSTVSTYYADSVKGRFTISRDNAKNTVYLQMNSLKPEDTAVYYCASAKSWYSYKMDYWGQGTQVTVSS,low polyreactivity
3,QVQLVESGGGLVQAGGSLRLICAASGSIFPPYAMGWYRQAPGKDREFVAAITISGDSTYYADSVKGRFTISRDNAKNTVYLQMNSLKPEDTAVYYCNADSYAFQYTWGEAYYGLYGYWGQGTQVTVSS,low polyreactivity
4,QVQLVESGGGLVQAGGSLRLSCAASGSIFSIYAMGWYRQAPWKERELVAAITWGGGSTYYADSVKGRFTISRDNAKNTVYVQMNSLKPEDTAVYYCAADSLTWYGTYYYWGQGTQVTVSS,high polyreactivity
5,QDQLVESGGGLVQAGGSLRLSCAASGSIFGWYAMGWYRQAPGKERELVAAITWSGGSTYYADSVKGRFTISRDNAKNTVYLQMNSRKPEDTAVYYCAATYYGYVGRYDYWGQGTQVTVSS,high polyreactivity
6,QVQLVESGVGLVQAGGSLRLSCAASGNIITTYAMGWYRQAPGKERELVAAISRTGGRTSYADSVKGRFTISRDNAKNTVYLQMNSLKPEDTAVYYCAAVQTVRQSAPRARILSDYWGQGTQVTVSS,high polyreactivity
7,QVQLVESGGGLVQAGGSLRLSCAASGLTFLYYAMGWYRQAPGKERELVAAISSRGGSTYYADSVKGRFKISRDNAKNTVYLQMNSLKPEDTAVYYCNAVRGDEYWGQGTQVTVSS,high polyreactivity
8,QVQLVESGGGLVQAGGSLRLSCAASGRTIYQYAMGWYRQAPGKERELVAAISRGGSTNYADSLKGRFTISRDNAKNTVYLQMNSLKPEDTAVYYCASWYKFLSLKRLYERDYWGQGTQVTVSS,high polyreactivity
9,QVQLVESGGGLVQAGGSLRLSCAASGRPFRLNGMGWYRQAPGKERELVAAITWSGGRTYYADSVKGRFTISRDNAKTTVYLQMNSLKPEDTAVYDCAADYRYKSHWWYRRFDYWGQGTQVTVSS,high polyreactivity
10,QVQLVESGGVLVQAGGSLRLSCAASGFIFSEYAMGWYRHAPGKERELVAAISRSGGRTYYADSVKGRFTISRDNAKNTVYLQMNSLKPEDTAVYYCAAVWWWYYNHYYYWGQGTLVTVSS,high polyreactivity
11,QGQLVESGGGLVQGGGSLRFSCAASGITFQRYALGGYRQAPGKDRALVAAIRRSGTSTYYADSVKGRFPITRHNAKNPVHLQMNSLKPEDTAVKYCAAGSYPTEGSKYGYWGQGTQVTGSS,high polyreactivity
12,QVQIEESGGGLVQAGRSLRLSCAASGFIFGSNAMGWYRQAPGKETELVAAISRSGGSTYYADSVKGRFTISRDYAKNTVYVQMNSLKPEDTAVYYGASYLYKTRYLTEYDYWGHGTQVTVSS,high polyreactivity
13,QVQLVESGGGLDQAGGSLRLSCAASGLTFWYYAMGWYRQAPGKERELVVAISWSGGRTSYADSVKGRFTISRDNAKNTVYLQMNSLKPEDTAVYYCAADKDFRTGEYEYDYWGQGTQVTVSS,high polyreactivity
14,QVQLVESGGGLVQAGGSLRLSCAASGRTFGNYAMGWYRQAPGKERELVASITYTVGNTYYADSVKGRFTISRDNAKNTVYLQMNSLKPEDTAVYYCAADGFYLQFYHYDYWGQGTQVTVSS,low polyreactivity
15,QVQLVESGGGLVQAGGSLRLSCAASGFTFGWYTMGWYRPAPGKERELVAAISLNGGSTYYADSVKGRFTISRDNAKNTVYLQMNSLKPEDTAVYYCAIGYRWPYYPYDYWGQGTQVTVSS,low polyreactivity
16,QVQLEESGGGLVQAGGSLRLSCAASGITFDFNAKGWYRQAPGTERELVAAIRNRGGSTYYADSVKGRFTISRDNAKNTVYLQMHSLKPVDTAVYYCNVDLWPFVYSWWSYDYWGQGTQVTVSS,high polyreactivity
17,QVQLVESGGGLVQAGGSLRLSCAASGSIIRWYTMAWYRQAPGKESEFVAAITRSGGSTYYADSVKVRFTISRDNAKNTVYLQMNSLKPEDTAVYYCARYANYDKRYDYWGQGTQVTVSS,high polyreactivity
18,QVQLVESGGGLVQAGGSLRLSCGASGTIFDYYVMGWYRQAPVKERELVAAISWSGASTYYADSVKGRFTISRDNAKNTVYLQMNSLKPDDTAVYYCAADYGVNTLIDYDYWGQGTQVTVSS,low polyreactivity
19,QVQLVESGGVLVQAGGSLRLSCAASGRLFSRYTMGWYRQAPGKERELVAAIRNTGSTNYADSVKGRFTISRDNAKNTVYLQMNSLKPEDTAVYYCNARTAYVAYHYYYPQRMDYWGQGTQVTVSS,high polyreactivity
20,QVQLVESGGGLVQAGGSLRLSCAASGFTFGRYAMGWYRQAPWKERELVADITWSGGSTYYADSVKGRFSISRDFAKNTVYLQMNSLKPEDTAVYYCNRLSKNREYDYWGQGTQVNVSS,high polyreactivity
21,QVQLVESGGGLVQAGGSLRLSCAASAIIFYTYAMGWYRQAPGKERELVAAISSGGRTTYADSVKGRFTISRDNAKTTVYFQMNSLKPEDTAVYYCAARLFRSRHAASPFIRSIYGYWGQGTQVTVSS,high polyreactivity
22,QVQLVESGGGLVQAGGSLRLSCAASGSIFFTYAMGWYRQAPGKERELVAAISGVVSTYYADSVKGRFTISRDNAKNTVYLQMNSLKPEDTAVYYCAADYSWTGFGWEYDYWGQGTQVNVSS,low polyreactivity
